Experiment [1] has as its target T1, mouse TREM2 on BWZ cells (mouse, UniProt Q99NH8 19-227).
T1 construct: whole, on cells; also called BWZ Mouse TREM2
T1 sequence (looked up): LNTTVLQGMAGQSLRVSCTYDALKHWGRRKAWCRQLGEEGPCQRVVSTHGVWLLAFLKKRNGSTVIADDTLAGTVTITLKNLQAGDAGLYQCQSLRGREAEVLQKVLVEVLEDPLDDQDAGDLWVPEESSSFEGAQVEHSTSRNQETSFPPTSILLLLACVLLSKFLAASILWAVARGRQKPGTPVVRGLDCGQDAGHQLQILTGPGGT
The experiment can be described thus: FACS, BWZ cells.

In experiment [2] the target is T2, human TREM2 on BWZ cells (human, UniProt Q9NZC2 19-230).
T2 construct: whole, on cells; not tied to the cell line; also called BWZ Human TREM2
T2 sequence (looked up): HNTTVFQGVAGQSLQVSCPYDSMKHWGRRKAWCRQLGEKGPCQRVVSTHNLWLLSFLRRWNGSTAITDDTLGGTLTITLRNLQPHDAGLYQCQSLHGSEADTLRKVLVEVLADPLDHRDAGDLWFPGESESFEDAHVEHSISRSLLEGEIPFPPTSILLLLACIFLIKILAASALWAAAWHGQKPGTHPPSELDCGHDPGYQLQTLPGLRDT
The experiment can be described thus: FACS, BWZ cells. (Flow cytometry measures light scatter and fluorescence of single cells or particles in a stream.)

B1: T1-35 (antibody, IgG1, V domains shown)
VH: QVQLVESGGGVVQPGRSLRLSCAASGFTFSSYGMHWVRQAPGKGLEWVAVISYDGSNKYYADSVKGRFTISRDNSKNTLYLQMNSLRAEDTAVYYCARPDYYSSRGVFDIWGQGTMVTVSS
VL: not shown
notes: huIgG1; also called TI-35; ADI-19109
Consider B1, for which the binding result in experiment [1] and in experiment [2] was “no binding” each time.

B2: T1-36 (antibody, IgG1, V domains shown)
VH: QVQLVESGGGVVQPGRSLRLSCAASGFTFSSYGMHWVRQAPGKGLEWVAVISYDGSNKYYADSVKGRFTISRDNSKNTLYLQMNSLRAEDTAVYYCARPDYYSSRGVFDIWGQGTMVTVSS
VL: not shown
notes: huIgG1; also called TI-36; ADI-19110
As to B2, the binding result in experiment [1] and in experiment [2] was “no binding” throughout.

B3: T1-38 (antibody, IgG1, V domains shown)
VH: QVQLVESGGGVVQPGRSLRLSCAASGLTFSSYGMHWVRQAPGKGLEWVAVISYDGSNKYYADSVKGRFTISRDNSKNTLYLQMNSLRAEDTAVYYCARERGTYYYASGWANWGQGTLVTVSS
VL: not shown
notes: huIgG1; also called TI-38; ADI-19112
Regarding B3, the binding result in experiment [1] and in experiment [2] was “no binding” throughout.

B4: T1-18 (antibody, IgG1, V domains shown)
VH: EVQLVESGGGLVQPGRSLRLSCAASGFTFDDYAMHWVRQAPGKGLEWVSGISWNSGDIGYADSVKGRFTISRDNAKNTLYLQMNSLRAEDTALYYCAKGPRMVTHLDVWGQGTMVTVSS
VL: DIQMTQSPSTLSASVGDRVTITCRASQSISSWLAWYQQKPGKAPKLLIYKASSLESGVPSRFSGSGSGTEFTLTISSLQPDDFATYYCQQDSIYPITFGGGTKVEIK
notes: huIgG1; also called TI-18; ADI-19085
As for B4, the binding result in experiment [1] and in experiment [2] was “no binding” in each case.

B5: T1-58 (antibody, IgG1, V domains shown)
VH: QLQLQESGPGLVKPSETLSLTCTVSGGSISSSSYYWGWIRQPPGKGLEWIGSIYYSGSTYYNPSLKSRVTISVDTSKNQFSLKLSSVTAADTAVYYCARQEYGDGYFDLWGRGTLVTVSS
VL: not shown
notes: huIgG1; also called TI-58; ADI-19133
B5: the binding result in experiment [2] is recorded as “no binding”.

B6: T1-39 (antibody, IgG1, V domains shown)
VH: EVQLVESGGGLVKPGGSLRLSCAASGFTFSSYSMNWVRQAPGKGLEWVSSISSSSNYIYYADSVKGRFTISRDNAKNSLYLQMNSLRAEDTAVYYCARRGGSSSTGLLYWGQGTLVTVSS
VL: DIQLTQSPSSVSASVGDRVTITCRASQDISSWLAWYQQKPGKAPKLLIYAASSLQSGVPSRFSGSGSGTDFTLTISSLQPEDFATYYCQQSLTHPTFGGGTKVEIK
notes: huIgG1; also called TI-39; ADI-19113
Take B6: the binding result in experiment [1] and in experiment [2] was “no binding” each time.

B7: T1-40 (antibody, IgG1, V domains shown)
VH: EVQLVESGGGLVKPGGSLRLSCAASGFTFSSYSMNWVRQAPGKGLEWVSSISSSSSYIYYADSVKGRFTISRDNAKNSLYLQMNSLRAEDTAVYYCARTRIDDSFDIWGQGTMVTVSS
VL: not shown
notes: huIgG1; also called TI-40; ADI-19114
Take B7: the binding result in experiment [1] and in experiment [2] was “no binding” in each case.

B8: T1-37 (antibody, IgG1, V domains shown)
VH: QVQLVESGGGVVQPGRSLRLSCAASGFTFSSYGMHWVRQAPGKGLEWVALIWYDGSNKYYADSVKGRFTISRDNSKNTLYLQMNSLRAEDTAVYYCAKGDYLDPLFDYWGQGTLVTVSS
VL: EIVMTQSPATLSVSPGERATLSCRASQSVSSNLAWYQQKPGQAPRLLIYGASTRATGIPARFSGSGSGTEFTLTISSLQSEDFAVYYCQQYAYWPLTFGGGTKVEIK
notes: huIgG1; also called TI-37; ADI-19111
For the molecule B8, the binding result in experiment [1] and in experiment [2] was “no binding” throughout.

B9: T1-49 (antibody, IgG1, V domains shown)
VH: QVQLVQSGAEVKKPGASVKVSCKASGYTFTSYYMHWVRQAPGQGLEWMGIINPSGGSTSYAQKFQGRVTMTRDTSTSTVYMELSSLRSEDTAVYYCAREAGSWLISTAFDIWGQGTMVTVSS
VL: not shown
notes: huIgG1; also called TI-49; ADI-19122
Consider B9, for which the binding result in experiment [1] is given as “no binding”.

B10: T1-41 (antibody, IgG1, V domains shown)
VH: not shown
VL: DIQLTQSPSSVSASVGDRVTITCRASQDISSWLAWYQQKPGKAPKLLIYAASSLQSGVPSRFSGSGSGTDFTLTISSLQPEDFATYYCQQAVIHPPYTFGGGTKVEIK
notes: huIgG1; also called TI-41; ADI-19115
As to B10, the binding result in experiment [1] and in experiment [2] was “no binding” throughout.

The values above are taken from patent publication US11472877 (Alector, dated 2022).
